# Measurements from patent publication US20220026429A1, “COMPOSITIONS AND METHODS OF ALTERING A NUCLEIC ACID WITH RIBONUCLEASE” (The Research Foundation for the State University of New York, priority 2020, published 2022).
# Key:
# RNase H = target: T1, RNase H (Escherichia coli, UniProt P0A7Y4); test: DNA nanoswitch RNase H inhibition assay (gel readout); assay type: biochemical; details: nanoswitch incubated with different concentrations of kanamycin, then RNase H (0.5 U) added; FIG. 4F; read-out: IC50 value, inhibition of the RNA cleavage activity of RNase H
# T1 construct: purchased New England Biolabs (NEB)
# T1 sequence (P0A7Y4 whole entry): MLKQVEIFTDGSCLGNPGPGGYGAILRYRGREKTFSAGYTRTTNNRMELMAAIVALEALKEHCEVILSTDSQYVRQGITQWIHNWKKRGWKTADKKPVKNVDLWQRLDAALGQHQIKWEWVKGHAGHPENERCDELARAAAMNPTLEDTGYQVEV
# Procedure: (§1) Locked nanoswitches, such as DNA-nanoswitch-nucleic acid constructs were first mixed with RNase H buffer (1× final) and placed at 37° C. 1 μl of RNase H (different units/μl) was added to 10 μl of locked nanoswitches such as DNA-nanoswitch-nucleic acid constructs and incubated at 37° C. For sensitivity experiments, samples were incubated for 1 hour at 37° C. For time series experiments, RNase H enzyme was added at different time points (from 16 mins to 0 min). After incubation, samples were mixed with 1 μl GelRed (1×final) and 2 μl loading dye (15% Ficoll, 0.1% bromophenol blue), and run on 0.8% agarose gels. A similar protocol was used for the other enzymes.
# (§2) Nanoswitches were run in 0.8% agarose gels, cast from molecular biology grade agarose (Fisher BioReagents) dissolved in 0.5×Tris-borate EDTA (TBE). Gels were typically run at 75 V (constant voltage) at room temperature. Samples were pre-stained by mixing 1× GelRed stain with the samples before loading. Gels were imaged with a Bio-Rad Gel Doc XR+gel imager and analyzed using ImageJ.
# Next, the potential of assays of the present disclosure was tested for screening RNase H inhibitors. […] To further make a rapid readout, a start-to-finish assay was performed within 15 mins, by incubating the nanoswitches with RNase H for 5 mins followed by agarose gel electrophoresis for 10 mins (FIG. 4G). […]
# [1] = system: locked nanoswitches (RNA lock strand); test: DNA nanoswitch RNase activity assay, panel of RNases; assay type: biochemical; details: agarose gel readout, FIG. 4E
# Procedure: as §1, §2
# As a step toward testing ribonuclease presence in biological samples, a known concentration of RNase H was spiked into fetal bovine serum (FBS) and cell lysates extracted from human (HeLa) and murine (C2C12) cell lines. RNase detection was preserved in 10% FBS and cell lysates with the unlocking of the DNA nanoswitch in both biofluids (FIGS. 4B-4C).
Molecule,IC50 (RNase H) [mM],response of the locked nanoswitches (unlooping) to RNases [1]
NC[C@H]1O[C@H](O[C@H]2[C@H](O)[C@@H](O[C@H]3O[C@H](CO)[C@@H](O)[C@H](N)[C@H]3O)[C@H](N)C[C@@H]2N)[C@H](O)[C@@H](O)[C@@H]1O [kanamycin],30.6,
"RNase T: ribonuclease enzyme purchased from New England Biolabs (protein, UniProt P30014 1-215, looked up) Ribonuclease T: MSDNAQLTGLCDRFRGFYPVVIDVETAGFNAKTDALLEIAAITLKMDEQGWLMPDTTLHFHVEPFVGANLQPEALAFNGIDPNDPDRGAVSEYEALHEIFKVVRKGIKASGCNRAIMVAHNANFDHSFMMAAAERASLKRNPFHPFATFDTAALAGLALGQTVLSKACQTAGMDFDSTQAHSALYDTERTAVLFCEIVNRWKRLGGWPLSAAEEV",,no activity
"RNase A: endonucleases from Enzyme Class EC 3.1.27.5 (protein, UniProt P61823 27-150, looked up) Ribonuclease pancreatic: KETAAAKFERQHMDSSTSAASSSNYCNQMMKSRNLTKDRCKPVNTFVHESLADVQAVCSQKNVACKNGQTNCYQSYSTMSITDCRETGSSKYPNCAYKTTQANKHIIVACEGNPYVPVHFDASV",,high levels of unlooping
